Laboratory results taken from US20260167699A1 (Chugai, published 2026).
Read-outs that look alike come from different tables or passages of the source.

T1: FcγRIIb extracellular domain with C-terminal His tag (human, UniProt P31994 43-217)
T1 construct: extracellular domain
T1 sequence: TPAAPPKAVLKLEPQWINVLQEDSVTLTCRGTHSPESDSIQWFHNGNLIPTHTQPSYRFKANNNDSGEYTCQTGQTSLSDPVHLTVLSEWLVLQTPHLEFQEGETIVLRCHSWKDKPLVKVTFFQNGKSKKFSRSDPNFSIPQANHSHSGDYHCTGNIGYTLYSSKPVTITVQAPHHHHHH

T2: FcγRIIa(H) extracellular domain with C-terminal His tag (human, UniProt P12318 34-217)
T2 construct: extracellular domain; polymorphic form H131; also called FcγRIIa H type
T2 sequence: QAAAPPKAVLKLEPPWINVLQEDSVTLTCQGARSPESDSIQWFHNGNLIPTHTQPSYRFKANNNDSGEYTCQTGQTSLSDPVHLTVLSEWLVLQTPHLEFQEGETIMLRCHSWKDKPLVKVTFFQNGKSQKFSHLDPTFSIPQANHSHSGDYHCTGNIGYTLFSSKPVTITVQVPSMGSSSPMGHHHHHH

T3: FcγRIIa(R) extracellular domain with C-terminal His tag (human, UniProt P12318 34-217)
T3 construct: extracellular domain; polymorphic form R131; also called FcγRIIa R type
T3 sequence: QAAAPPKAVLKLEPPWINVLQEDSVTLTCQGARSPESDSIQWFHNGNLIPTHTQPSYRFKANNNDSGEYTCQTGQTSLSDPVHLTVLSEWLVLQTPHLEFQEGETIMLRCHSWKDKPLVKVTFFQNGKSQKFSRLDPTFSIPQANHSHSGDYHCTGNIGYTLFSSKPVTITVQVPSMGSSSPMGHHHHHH

T4: FcγRIIa R extracellular domain with C-terminal His tag (UniProt P12318 34-217, limits assumed)
T4 construct: extracellular domain; also called 2aR
T4 sequence: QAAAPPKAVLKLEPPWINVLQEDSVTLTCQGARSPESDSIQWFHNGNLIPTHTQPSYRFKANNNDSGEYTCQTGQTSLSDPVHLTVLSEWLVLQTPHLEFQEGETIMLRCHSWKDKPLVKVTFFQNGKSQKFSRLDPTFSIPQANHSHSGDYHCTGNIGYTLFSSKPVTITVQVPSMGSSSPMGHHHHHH

T5: FcγRIIb extracellular domain with C-terminal His tag (UniProt P31994 43-217, limits assumed)
T5 construct: extracellular domain; also called 2b
T5 sequence: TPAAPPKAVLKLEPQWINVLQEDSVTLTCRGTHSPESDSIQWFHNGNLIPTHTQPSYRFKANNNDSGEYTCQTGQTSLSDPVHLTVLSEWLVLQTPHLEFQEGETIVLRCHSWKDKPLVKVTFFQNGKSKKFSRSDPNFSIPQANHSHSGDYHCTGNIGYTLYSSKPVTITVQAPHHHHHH

T6: FcγRIIa H extracellular domain with C-terminal His tag (UniProt P12318 34-217, limits assumed)
T6 construct: extracellular domain; also called 2aH
T6 sequence: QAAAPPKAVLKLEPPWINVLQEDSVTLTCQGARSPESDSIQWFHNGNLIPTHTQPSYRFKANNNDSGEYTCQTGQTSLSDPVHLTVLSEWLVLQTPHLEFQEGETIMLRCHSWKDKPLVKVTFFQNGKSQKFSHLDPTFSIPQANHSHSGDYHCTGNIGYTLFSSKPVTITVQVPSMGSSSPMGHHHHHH


Experiments:
[1] = molecular target: T1, FcγRIIb extracellular domain with …; assay: SPR (Biacore), captured antibody, FcγR analyte, 1:1 Langmuir fit; afucosylated G1d; Table 8 reprint of Table 7
Procedure: (§1) The antibody of interest was analyzed for its interaction with FcγR using a BiaCore™ T100, BiaCore™ A100, or BiaCore™ 4000 surface plasmon resonance system (GE Healthcare Japan Corp.). The running buffer used was HBS-EP+ (GE Healthcare Japan Corp.). The assay temperature was set to 25° C. The sensor chips used were: a chip prepared by immobilizing antigenic peptides onto Series S Sensor Chip CM5 (GE Healthcare Japan Corp.) by the amine coupling method; a chip prepared by immobilizing antigenic peptides biotinylated in advance onto Series S Sensor Chip SA (certified) (GE Healthcare Japan Corp.) through their interaction; a chip prepared by immobilizing protein L (ACTIGEN, BioVision, Inc.) onto Series S Sensor Chip CM5 (GE Healthcare Japan Corp.); and a chip prepared by immobilizing protein A/G (Thermo Fisher Scientific K.K.) onto Series S Sensor Chip CM5 (GE Healthcare Japan Corp.). The antibody of interest was captured onto any of these chips and allowed to interact with FcγR diluted with a running buffer. The antibody captured on the chip was washed off through the reaction of 10 mM glycine-HCl (pH 1.5) to regenerate the chip, which was repetitively used.

[2] = molecular target: T7, FcγRIa extracellular domain with C-terminal His tag (human, UniProt P12314 16-292); assay: SPR (Biacore), captured antibody, FcγR analyte, 1:1 Langmuir fit
T7 construct: extracellular domain
T7 sequence (P12314 other isoform, or with tags, fused parts or gaps): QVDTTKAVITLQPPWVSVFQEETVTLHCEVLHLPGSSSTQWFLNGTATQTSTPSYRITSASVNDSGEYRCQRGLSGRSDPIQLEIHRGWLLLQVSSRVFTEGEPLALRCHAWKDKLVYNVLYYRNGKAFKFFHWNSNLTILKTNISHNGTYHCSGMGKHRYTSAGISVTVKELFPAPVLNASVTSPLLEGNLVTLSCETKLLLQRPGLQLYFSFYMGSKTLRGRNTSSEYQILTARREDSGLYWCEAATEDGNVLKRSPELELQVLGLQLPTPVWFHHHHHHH
Procedure: as §1

[3] = molecular target: T2, FcγRIIa(H) extracellular domain with …; assay: as above
Procedure: as §1

[4] = molecular target: T8, FcγRIIIa(V) extracellular domain with C-terminal His tag (human, UniProt P08637 17-208); assay: as above
T8 construct: extracellular domain; polymorphic form V158; also called FcγRIIIa V type
T8 sequence (P08637 other isoform, or with tags, fused parts or gaps): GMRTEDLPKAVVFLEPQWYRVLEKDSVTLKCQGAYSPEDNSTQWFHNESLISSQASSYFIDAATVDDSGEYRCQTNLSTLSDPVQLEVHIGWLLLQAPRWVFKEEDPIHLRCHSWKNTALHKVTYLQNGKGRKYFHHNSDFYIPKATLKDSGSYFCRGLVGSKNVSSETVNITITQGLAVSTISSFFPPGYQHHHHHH
Procedure: as §1

[5] = molecular target: T3, FcγRIIa(R) extracellular domain with …; assay: as above
Procedure: as §1

[6] = molecular target: T9, FcγRIIIa(F) extracellular domain with C-terminal His tag (human, UniProt P08637 17-208); assay: as above
T9 construct: extracellular domain; polymorphic form F158; also called FcγRIIIa F type
T9 sequence (P08637 other isoform, or with tags, fused parts or gaps): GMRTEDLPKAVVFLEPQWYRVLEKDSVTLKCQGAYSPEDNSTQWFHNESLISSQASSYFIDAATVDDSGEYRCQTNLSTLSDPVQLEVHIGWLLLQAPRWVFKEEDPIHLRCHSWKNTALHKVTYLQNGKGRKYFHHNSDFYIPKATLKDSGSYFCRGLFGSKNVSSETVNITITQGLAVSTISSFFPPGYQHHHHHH
Procedure: as §1

[7] = molecular target: T7, FcγRIa extracellular domain with …; assay: as above; remark: listed apart in the source
Procedure: as §1

[8] = molecular target: T2, FcγRIIa(H) extracellular domain with …; assay: as above; remark: listed apart in the source
Procedure: as §1

[9] = molecular target: T8, FcγRIIIa(V) extracellular domain with …; assay: as above; remark: listed apart in the source
Procedure: as §1

[10] = molecular target: T3, FcγRIIa(R) extracellular domain with …; assay: as above; remark: listed apart in the source
Procedure: as §1

[11] = molecular target: T9, FcγRIIIa(F) extracellular domain with …; assay: as above; remark: listed apart in the source
Procedure: as §1

[12] = molecular target: T1, FcγRIIb extracellular domain with …; assay: SPR (Biacore), captured antibody, FcγR analyte, 1:1 Langmuir fit; afucosylated antibody (same sequence as G1d, other glycoform)
[13] = molecular target: T4, FcγRIIa R extracellular domain with …; assay: SPR (Biacore), as the text refers to Example 3
[14] = molecular target: T5, FcγRIIb extracellular domain with …; assay: SPR (Biacore), as the text refers to Example 3
[15] = molecular target: T6, FcγRIIa H extracellular domain with …; assay: SPR (Biacore), as the text refers to Example 3
[16] = molecular target: T10, FcγRIa extracellular domain with C-terminal His tag (UniProt P12314 16-292, limits assumed); assay: SPR (Biacore), as the text refers to Example 3
T10 construct: extracellular domain; also called 1a
T10 sequence (P12314 other isoform, or with tags, fused parts or gaps limits assumed): as the sequence (P12314 other isoform, or with tags, fused parts or gaps) above

Kd [1] [nM]	Kd [2] [nM]	Kd [3] [nM]	Kd [4] [nM]	Kd [5] [nM]	Kd [6] [nM]	Kd [7] [nM]	Kd [8] [nM]	Kd [9] [nM]	Kd [10] [nM]	Kd [11] [nM]	Kd [12] [nM]	binding result [13]	binding result [14]	binding result [15]	binding result [16]	Binder
2600	0.43	780	6.9	490	78	0.43	780	6.9	490	78	2600					H240-afucosyl_G1d/L73-k0 (antibody, human IgG1, kappa, afucosylated (fucose-deficient sugar chain), afucosylated form of the anti-epiregulin IgG1 H240-G1d/L73-k0; also called afucosylated antibody) heavy: not shown light: DIQMTQSPSSLSASVGDRVTITCRASQDIHKYIAWYQQKPGQAPRLLIQYTSTLQPGVPSRFSGSGSGTDYTFTISSLQPEDIATYYCLQYEQLRTFGGGTKVEIKRTVAAPSVFIFPPSDEQLKSGTASVVCLLNNFYPREAKVQWKVDNALQSGNSQESVTEQDSKDSTYSLSSTLTLSKADYEKHKVYACEVTHQGLSSPVTKSFNRGEC
												binds	binds	binds	binds	GpH7-B3/GpL16-k0 (antibody, human IgG1, kappa, also called HoCon Ab) heavy: not shown light: DIVMTQSPLSLPVTPGEPASISCQASESLVHSNRNTYLHWYLQKPGQSPQLLIYKVSNRFSGVPDRFSGSGSGTDFTLKISRVEAEDVGVYYCSQNTHVPPTFGQGTKVEIERTVAAPSVFIFPPSDEQLKSGTASVVCLLNNFYPREAKVQWKVDNALQSGNSQESVTEQDSKDSTYSLSSTLTLSKADYEKHKVYACEVTHQGLSSPVTKSFNRGEC
